Test [1] concerns the target human Kv1.3 channel (human) (UniProt P22001). The test can be described thus: two-electrode voltage clamp.
For test [2] the target is unchanged. As to the kind of experiment: […].
The target of test [3] is KcsA-Shaker channel (KcsA pore carried in the Shaker channel) (Drosophila | not stated). The test can be described thus: two-electrode voltage clamp.
Test [4] shares this target. The test can be described thus: […].
The target in test [5] is KcsA-Shaker–Y82V (Drosophila | not stated). As to the kind of experiment: […].
Test [6] addresses KcsA-Shaker channels. Conditions: TEA block of KcsA-Shaker; cited from earlier work.
Test [7] concerns KcsA-Shaker channels. The test can be described thus: TEVC block of KcsA-Shaker channels expressed in Xenopus oocytes. In kind it is cell-based.
The test system of a further test is KcsA-Shaker–Y82V. As to the kind of experiment: TEVC equilibrium inhibition of pore mutant KcsA-Shaker-Y82V in oocytes. In kind it is cell-based. To be noted: KcsA-Shaker–Y82V vs KcsA-Shaker, 0 mV.
For test [8], the target named is KcsA-Shaker channel (KcsA pore carried in the Shaker channel) (Drosophila | not stated). The test can be described thus: two-electrode voltage clamp. This is another data set of the same source.

Bounds are passed on as bounds.

The source of these data is paper PMC7056315 (Science Advances, 2020).

Sequence of human Kv1.3 channel (human) (P22001 whole entry): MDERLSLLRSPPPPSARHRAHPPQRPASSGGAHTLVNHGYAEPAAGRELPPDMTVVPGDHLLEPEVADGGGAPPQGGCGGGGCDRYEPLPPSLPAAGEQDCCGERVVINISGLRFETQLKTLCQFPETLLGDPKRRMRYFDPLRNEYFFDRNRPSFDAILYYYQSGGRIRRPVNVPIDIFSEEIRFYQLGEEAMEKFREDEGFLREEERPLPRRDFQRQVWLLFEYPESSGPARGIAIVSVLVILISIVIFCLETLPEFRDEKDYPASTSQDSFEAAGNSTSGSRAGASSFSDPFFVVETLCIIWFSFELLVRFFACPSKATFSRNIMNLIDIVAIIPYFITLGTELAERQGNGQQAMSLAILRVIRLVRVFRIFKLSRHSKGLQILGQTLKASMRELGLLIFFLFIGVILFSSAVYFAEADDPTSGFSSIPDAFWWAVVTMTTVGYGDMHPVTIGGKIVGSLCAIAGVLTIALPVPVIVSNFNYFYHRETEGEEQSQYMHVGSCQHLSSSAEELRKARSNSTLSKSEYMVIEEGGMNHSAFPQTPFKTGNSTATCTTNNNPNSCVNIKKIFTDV

Take T-ShK–Arg^24Gln (peptide): in test [1], the inhibitory constant (Ki) amounted to 0.075 nM and the percent of current blocked (0.1 ng of cRNA) worked out at 93%.
On the same counts, the results for T-ShK–Lys^22Asn (peptide) are 0.42 nM and 70%.
Molecule ShK-K22N peptide had a fold decrease of inhibition against ShK peptide in [2] of 24 fold.
For T-HmK–Tyr^23Ala (peptide), in test [3], the Ki came out at 28 nM, the off-rate (koff) worked out at 0.17 s⁻¹, the on-rate (kon) was 6.1e+06 M⁻¹ s⁻¹ and the percent of current blocked (0.5 ng of cRNA) was less than 38%.
In test [4], Peptide HmK-Tyr^23Ala gave an inhibitory constant (Ki) of 162 nM, an off-rate (koff) of 0.15 s⁻¹ and an association rate constant (kon) of 930000 M⁻¹ s⁻¹.
In test [3], HmK peptide displayed a kon of 1.2e+06 M⁻¹ s⁻¹ and a τon (30 nM HmK, after TEA wash off) of 27 s. In addition, in [4], the Ki stood at 0.94 nM, the association rate constant (kon) stood at 1.3e+06 M⁻¹ s⁻¹, the τoff was 714 s and the τon (5 nM HmK) is 126 s. For the same molecule, the fold decrease of equilibrium affinity against KcsA-Shaker in test [5] turned out to be 550 fold. Besides, the Ki in test [2] was determined as 3.1 nM.
Regarding `CC[N+](CC)(CC)CC` [TEA, tetraethylammonium], on KcsA-Shaker channels [6], the Ki is roughly 800000 nM. For the same molecule, in the test with KcsA-Shaker channels [7] (100 mM TEA), the “block of KcsA-Shaker” value was “complete”. Besides, the “τoff (dissociation / unblock)” value with KcsA-Shaker channels [7] (washout of 100 mM TEA) is ~ 1.3 s. Further, the “decrease in equilibrium affinity by mutation of pore residue Tyr^82 to Val” value in the test on KcsA-Shaker–Y82V was ~ 200 fold.
In [3], “T-HmK variant Asn^26 to alanine (peptide)” returned a fold decrease of affinity against T-HmK of 10 fold.
Consider T-ShK (membrane-tethered ShK) (peptide), for which, in test [1], the inhibitory constant (Ki) amounted to 0.098 nM.
T-HmK-Lys22Asn showed a koff in test [2] of 0.93 s⁻¹.
In [3], T-HmK–Arg^24Gln (peptide) gave an inhibitory constant (Ki) of 0.91 nM, a koff of 0.0063 s⁻¹ and an association rate constant (kon) of 6.9e+06 M⁻¹ s⁻¹. Also, in test [1], the fold change of apparent Ki against T-HmK is 3 fold and the percent of current blocked (0.5 ng of cRNA) was determined as 68%.
ShK-Lys22Asn peptide: the Ki in test [1] is 1.2 nM.
In test [4], Peptide HmK-Lys^22Asn showed an inhibitory constant (Ki) of 225 nM, a dissociation rate constant (koff) of 0.1 s⁻¹ and a kon of 380000 M⁻¹ s⁻¹.
In test [3], T-HmK–Lys^22Asn (peptide) came in with an inhibitory constant (Ki) of 35 nM, a koff of 0.11 s⁻¹, a kon of 3.1e+06 M⁻¹ s⁻¹ and a percent of current blocked (0.5 ng of cRNA) of less than 38%. Moreover, in test [1], the fold change of apparent Ki against T-HmK came to 230 fold and the percent of current blocked (0.5 ng of cRNA) was found to be 2%.
As to “T-HmK variant Pro^8 to alanine (peptide)”, the fold decrease of affinity against T-HmK in test [3] worked out at 10 fold.
In the case of “T-HmK (membrane-tethered HmK, 46-residue linker) (peptide)”, in test [3], the inhibition constant (Ki) worked out at 1.09 nM, the apparent first-order on rate (effective T-HmK 1 nM) was 0.014 s⁻¹, the apparent first-order on rate (effective T-HmK 17 nM) was 0.119 s⁻¹ and the koff was determined as 0.0073 s⁻¹. In test [3], this molecule displayed an on-rate (kon) of 6.6e+06 M⁻¹ s⁻¹, a percent of current inhibited (0.01 ng of T-HmK cRNA) of 2%, a percent of current inhibited (0.25 ng of T-HmK cRNA) of 76% and a percent of current inhibited (0.35 ng of T-HmK cRNA) of 87%. In test [3], this molecule came in with a percent of current inhibited (0.5 ng of T-HmK cRNA) greater than 94%, a percent of current inhibited (1 ng of T-HmK cRNA) of 98% and a τon (0.25 ng of T-HmK cRNA) of 33 s. Also, the inhibition constant Ki in test [1] was 3 nM. Further, in test [8], the Ki amounted to 1.1 nM.
